Source: patent US20250066509A1

Target: human FGFR1c/βKlotho receptor (human), P11362
Assay: cell-based or functional assay

Chain of human FGFR1c/βKlotho receptor (human), P11362 (P11362 22-822, chain 1 of 2): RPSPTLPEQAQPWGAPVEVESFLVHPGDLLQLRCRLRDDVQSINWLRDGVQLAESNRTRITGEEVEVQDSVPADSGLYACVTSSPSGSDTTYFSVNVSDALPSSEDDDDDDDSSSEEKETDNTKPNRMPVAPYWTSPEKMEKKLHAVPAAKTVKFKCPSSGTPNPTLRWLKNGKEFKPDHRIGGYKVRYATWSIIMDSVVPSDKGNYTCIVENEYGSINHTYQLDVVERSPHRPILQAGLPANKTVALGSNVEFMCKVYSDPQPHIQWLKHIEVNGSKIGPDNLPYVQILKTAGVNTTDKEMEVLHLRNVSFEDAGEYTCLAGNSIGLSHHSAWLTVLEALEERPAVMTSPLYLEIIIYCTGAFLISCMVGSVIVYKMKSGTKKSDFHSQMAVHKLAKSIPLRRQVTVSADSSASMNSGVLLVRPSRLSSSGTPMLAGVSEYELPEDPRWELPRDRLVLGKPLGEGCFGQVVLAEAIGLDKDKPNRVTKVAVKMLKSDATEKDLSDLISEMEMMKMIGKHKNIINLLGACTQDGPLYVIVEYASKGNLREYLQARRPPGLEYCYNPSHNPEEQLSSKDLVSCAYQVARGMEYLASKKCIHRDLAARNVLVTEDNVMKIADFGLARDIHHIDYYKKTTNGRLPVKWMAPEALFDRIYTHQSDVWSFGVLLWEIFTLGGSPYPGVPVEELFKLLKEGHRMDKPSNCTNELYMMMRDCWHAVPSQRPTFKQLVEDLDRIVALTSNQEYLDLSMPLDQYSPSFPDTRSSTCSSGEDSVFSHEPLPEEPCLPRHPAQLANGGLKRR
Chain of human FGFR1c/βKlotho receptor (human), P11362 (chain, as listed by the source, chain 2 of 2): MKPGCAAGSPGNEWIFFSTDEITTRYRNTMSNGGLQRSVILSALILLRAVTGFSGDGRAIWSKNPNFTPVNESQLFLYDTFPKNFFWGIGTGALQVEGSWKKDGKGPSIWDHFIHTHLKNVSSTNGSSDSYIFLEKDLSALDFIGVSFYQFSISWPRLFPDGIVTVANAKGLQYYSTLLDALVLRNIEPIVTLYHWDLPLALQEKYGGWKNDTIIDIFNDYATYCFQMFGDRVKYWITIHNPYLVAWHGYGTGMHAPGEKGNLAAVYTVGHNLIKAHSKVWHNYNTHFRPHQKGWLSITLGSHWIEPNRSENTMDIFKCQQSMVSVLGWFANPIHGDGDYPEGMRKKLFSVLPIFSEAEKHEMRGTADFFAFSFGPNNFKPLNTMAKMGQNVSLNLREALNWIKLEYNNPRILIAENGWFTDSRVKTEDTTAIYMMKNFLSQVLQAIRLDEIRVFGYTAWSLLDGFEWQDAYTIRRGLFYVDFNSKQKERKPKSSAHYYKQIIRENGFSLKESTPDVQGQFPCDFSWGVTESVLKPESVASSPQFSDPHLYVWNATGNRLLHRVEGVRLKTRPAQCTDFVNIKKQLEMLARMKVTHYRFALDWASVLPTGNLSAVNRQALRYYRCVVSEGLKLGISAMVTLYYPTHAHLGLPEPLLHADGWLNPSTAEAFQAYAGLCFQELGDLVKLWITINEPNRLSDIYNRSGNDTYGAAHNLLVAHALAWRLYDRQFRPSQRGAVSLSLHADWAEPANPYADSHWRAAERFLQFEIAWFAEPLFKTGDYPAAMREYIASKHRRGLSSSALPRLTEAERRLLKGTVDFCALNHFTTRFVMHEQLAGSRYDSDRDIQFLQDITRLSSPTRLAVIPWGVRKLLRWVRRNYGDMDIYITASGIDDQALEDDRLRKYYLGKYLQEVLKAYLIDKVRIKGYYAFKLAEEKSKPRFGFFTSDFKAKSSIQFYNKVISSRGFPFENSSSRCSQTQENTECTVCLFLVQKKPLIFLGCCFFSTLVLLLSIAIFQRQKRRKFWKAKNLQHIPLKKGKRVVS

B1: CB-8 (antibody, V domains shown)
VH: EVQLVQSGAEVKKPGASVKVSCKASGYTFTSYGISWVRQAPGQGLEWMGWISAYNGNTNYAQKLQGRVTMTTDTSTSTAYMELRSLRSDDTAVYYCATLYGSGSLYYWGQGTLVTVSS
VL: DIVMTQSPSSLSAPVGDRVTITCQASQDIRNYINWFQQKPGKAPKLLIYAASSLQSGVPSRFSGSGSGTDFTLTISSLQPEDFATYYCQQSYSTPQWTFGQGTKVEIK
- EC50, luciferase reporter-based assay (receptor activation): 1.31 nM
- EC50 for antibody-induced cell activation, as determined by the reporter-based assay: 3.74 nM

B2: CB-8-13 (antibody, human IgG1, V domains shown)
VH: EVQLVQSGAEVKKPGASVKVSCKASGYRFTSYGISWVRQAPGQGLEWMGWISAYNGRTNYAQKLQGRVTMTTDTSTSTAYMELRSLRSDDTAVYYCATLYGSGSLYYWGQGTLVTVSS
VL: DIVMTQSPSSLSAPVGDRVTITCQASQDIRNYINWFQQKPGKAPKLLIYAASRLQSGVPSRFSGSGSGTDFTLTISSLQPEDFATYYCQQSYSTPQWTFGQGTKVEIK
- EC50 for antibody-induced cell activation, as determined by the reporter-based assay: 1.39 nM

B3: CB-8-37 (antibody, human IgG1, V domains shown)
VH: EVQLVQSGAEVKKPGASVKVSCKASGYAFTSYGISWVRQAPGQGLEWMGWISAYSGNTNYAQKLQGRVTMTTDTSTSTAYMELRSLRSDDTAVYYCATLYGSGSLYYWGQGTLVTVSS
VL: DIVMTQSPSSLSAPVGDRVTITCQASQDIRNYINWFQQKPGKAPKLLIYAASFLQSGVPSRFSGSGSGTDFTLTISSLQPEDFATYYCQQSYSTPQWTFGQGTKVEIK
- EC50 for antibody-induced cell activation, as determined by the reporter-based assay: 0.92 nM

B4: CB-8-26 (antibody, human IgG1, V domains shown)
VH: EVQLVQSGAEVKKPGASVKVSCKASGYTFKSYGISWVRQAPGQGLEWMGWISAYNGRTNYAQKLQGRVTMTTDTSTSTAYMELRSLRSDDTAVYYCATLYGSGSLYYWGQGTLVTVSS
VL: DIVMTQSPSSLSAPVGDRVTITCQASQDIRNYINWFQQKPGKAPKLLIYAASGLQSGVPSRFSGSGSGTDFTLTISSLQPEDFATYYCQQSYSTPQWTFGQGTKVEIK
- EC50 for antibody-induced cell activation, as determined by the reporter-based assay: 0.66 nM

B5: CB-8-41 (antibody, human IgG1, V domains shown)
VH: EVQLVQSGAEVKKPGASVKVSCKASGYLFTSYGISWVRQAPGQGLEWMGWISAYTGNTNYAQKLQGRVTMTTDTSTSTAYMELRSLRSDDTAVYYCATLYGSGSLYYWGQGTLVTVSS
VL: DIVMTQSPSSLSAPVGDRVTITCQASQDIRNYINWFQQKPGKAPKLLIYAASHLQSGVPSRFSGSGSGTDFTLTISSLQPEDFATYYCQQSYSTPQWTFGQGTKVEIK
- EC50 for antibody-induced cell activation, as determined by the reporter-based assay: 1.43 nM

B6: CB-8-14 (antibody, human IgG1, V domains shown)
VH: EVQLVQSGAEVKKPGASVKVSCKASGYTFRSYGISWVRQAPGQGLEWMGWISAYTGNTNYAQKLQGRVTMTTDTSTSTAYMELRSLRSDDTAVYYCATLYGSGSLYYWGQGTLVTVSS
VL: DIVMTQSPSSLSAPVGDRVTITCQASQDIRNYINWFQQKPGKAPKLLIYAASSRQSGVPSRFSGSGSGTDFTLTISSLQPEDFATYYCQQSYSTPQWTFGQGTKVEIK
- EC50 for antibody-induced cell activation, as determined by the reporter-based assay: 0.95 nM

B7: CB-8-40 (antibody, human IgG1, V domains shown)
VH: EVQLVQSGAEVKKPGASVKVSCKASGYTFTSYGISWVRQAPGQGLEWMGWISAYSGNTNYAQKLQGRVTMTTDTSTSTAYMELRSLRSDDTAVYYCATLYGSGSLYYWGQGTLVTVSS
VL: DIVMTQSPSSLSAPVGDRVTITCQASQDIRNYINWFQQKPGKAPKLLIYAASYLQSGVPSRFSGSGSGTDFTLTISSLQPEDFATYYCQQSYSTPQWTFGQGTKVEIK
- EC50 for antibody-induced cell activation, as determined by the reporter-based assay: 0.89 nM

B8: CB-8-24 (antibody, V domains shown)
VH: EVQLVQSGAEVKKPGASVKVSCKASGYTFTSYGISWVRQAPGQGLEWMGWISAYNGNTNYAQKLQGRVTMTTDTSTSTAYMELRSLRSDDTAVYYCATLLPSGSLYYWGQGTLVTVSS
VL: DIVMTQSPSSLSAPVGDRVTITCQASQDIRNYINWFQQKPGKAPKLLIYAASSLQSGVPSRFSGSGSGTDFTLTISSLQPEDFATYYCQQSYSTPQWTFGQGTKVEIK
- EC50 for antibody-induced cell activation, as determined by the reporter-based assay: 0.68 nM

B9: CB-8-23 (antibody, human IgG1, V domains shown)
VH: EVQLVQSGAEVKKPGASVKVSCKASGYTFTSGGISWVRQAPGQGLEWMGWISAYNGRTNYAQKLQGRVTMTTDTSTSTAYMELRSLRSDDTAVYYCATLYGSGSLYYWGQGTLVTVSS
VL: DIVMTQSPSSLSAPVGDRVTITCQASQDIRNYINWFQQKPGKAPKLLIYAASFLQSGVPSRFSGSGSGTDFTLTISSLQPEDFATYYCQQSYSTPQWTFGQGTKVEIK
- EC50 for antibody-induced cell activation, as determined by the reporter-based assay: 0.57 nM
